Reference: PMC8615163

B1: Milk fat globule-EGF factor 8 (MFG-E8) (natural protein)
chain: LDICSKNPCHNGGLCEEISQEVRGDVFPSYTCTCLKGYAGNHCETKCVEPLGLENGNIANSQIAASSVRVTFLGLQHWVPELARLNRAGMVNAWTPSSNDDNPWIQVNLLRRMWVTGVVTQGASRLASHEYLKAFKVAYSLNGHEFDFIHDVNKKHKEFVGNWNKNAVHVNLFETPVEAQYVRLYPTSCHTACTLRFELLGCELNGCANPLGLKNNSIPDKQITASSSYKTWGLHLFSWNPSYARLDKQGNFNAWVAGSYGNDQWLQVDLGSSKEVTGIITQGARNFGSVQFVASYKVAYSNDSANWTEYQDPRTGSSKIFPGNWDNHSHKKNLFETPILARYVRILPVAWHNRIALRLELLGC

Key:
[1] = molecular target: HIS-tagged integrin αvβ3 (ACRO Biosystems IT3-H52E3) (UniProt P06756); test: radioligand binding; 125I-labeled NP-011 (0–100 μg/mL) incubated in plates coated with HIS-tagged integrin; 50 mM Tris, 5 mM MgCl2, 100 mM NaCl, 1% BSA, pH 7.4; Kd by nonlinear curve fitting (Prism); done by Gifford Bioscience
[2] = molecular target: HIS-tagged integrin αvβ5 (ACRO Biosystems IT5-H52W5) (UniProt P06756); test: as above
[3] = molecular target: HIS-tagged integrin αvβ5 (ACRO Biosystems IT5-H52W5) (UniProt P06756); test: radioligand binding; binding affinity assay of MFG-E8 to integrin αVβ5 (Supplementary Figure S2); told with the radioligand binding assays, its own methods not shown

Row | Molecule | Kd [1] [nM] | Kd [2] [nM] | Kd [3] [nM]
1 | NP-011 (truncated form of MFG-E8, EGF + C1 domain) (from UniProt Q08431 24-387) (domain or fragment) | 50.4 | 2 | –
2 | B1 | – | – | 25.4
